We go through 1 protein from article PMC3769244.

The series in a line: immunofluorescence, data not shown. Particulars: glycan lost; control: untreated.

B1: CLN5: tunicamycin (protein)
parent chain: MAQEVDTAQGAEMRRGAGAARGRASWCWALALLWLAVVPGWSRVSGIPSRRHWPVPYKRFDFRPKPDPYCQAKYTFCPTGSPIPVMEGDDDIEVFRLQAPVWEFKYGDLLGHLKIMHDAIGFRSTLTGKNYTMEWYELFQLGNCTFPHLRPEMDAPFWCNQGAACFFEGIDDVHWKENGTLVQVATISGNMFNQMAKWVKQDNETGIYYETWNVKASPEKGAETWFDSYDCSKFVLRTFNKLAEFGAEFKNIETNYTRIFLYSGEPTYLGNETSVFGPTGNKTLGLAIKRFYYPFKPHLPTKEFLLSLLQIFDAVIVHKQFYLFYNFEYWFLPMKFPFIKITYEEIPLPIRNKTLSGL
As to B1, the localisation_or_trafficking entry is “changes”.
